Positions count from the first letter of the chain named. Where “and” joins values, the source holds several entries; their conditions need not be identical. Identical values can stand only once. Like-named read-outs stand apart in the source and are kept apart here. Blank lines part the entries; values can stand above or below the binder they belong to.
Experiments:
[1] = biological target: T1, cynomolgus monkey IL4Rα-his protein (cynomolgus monkey, UniProt A0A2K5V580 33-239); assay: indirect ELISA, coated cyno IL4Rα-his
T1 construct: Bought protein; also called Cynomolgus IL4Rα; Cyno-IL4Rα-his; not shown: his tag
Protocol: The anti-IL4Rα antibodies' cross-reaction with cynomolgus IL4Rα proteins or cal-IL4Rα-his proteins were measured. Briefly, 96-well micro plates were coated with 2 μg/ml cynomolgus IL4Rα-his protein (Sino biological inc., Cat #90897—C08H) or 0.2 μg/ml cal-IL4Rα-his protein (Custom made by Sino biological inc., Cat #BAX2) in carbonate/bicarbonate buffer (pH 9.6), 100 μl/well, for 2 hours at 37° C. ELISA plates were washed once with wash buffer (PBS+0.05% w/v Tween-20, PBST) and then blocked with 200 μl/well blocking buffer (5% w/v non-fatty milk in PBST) for 2 hours at 37° C. Plates were washed again and incubated with 100 μl/well serially diluted anti-IL4Rα antibodies of the disclosure or controls (0.004-66.7 nM, 5-fold serial dilution in 2.5% w/v non-fatty milk in PBST, starting at 66.7 nM) for 40 minutes at 37° C. […] After a final wash, plates were incubated with 100 μl/well TMB (Innoreagents). The reaction was stopped 3-10 minutes later at 25° C. with 50 μl/well 1M H₂SO₄, and the absorbance was read at 450 nm. Data was analyzed using Graphpad Prism software and EC₅₀ values were reported.

[2] = biological target: T2, recombinant human IL4Rα-his protein (in house made) (human, UniProt P24394 26-232, limits assumed); assay: competitive ELISA, blocks biotin-IL4 binding to coated IL4Rα-his
T2 construct: also called Human IL4Ra-his

[3] = biological target: T3, marmoset monkey IL4Rα-his protein (marmoset monkey); assay: indirect ELISA on coated cal-IL4Rα-his
T3 construct: Custom made by Sino biological; no cleavage site stated; also called cal-IL4Rα-his; Cal-IL4Rα
T3 chain: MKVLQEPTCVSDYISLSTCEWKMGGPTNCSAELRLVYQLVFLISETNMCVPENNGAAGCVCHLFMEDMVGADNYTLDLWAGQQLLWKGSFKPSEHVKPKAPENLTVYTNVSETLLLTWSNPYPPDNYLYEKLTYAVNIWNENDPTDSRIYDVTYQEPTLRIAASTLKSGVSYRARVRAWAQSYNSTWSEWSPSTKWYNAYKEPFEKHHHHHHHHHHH

[4] = biological target: T2, recombinant human IL4Rα-his protein (in …); assay: capture ELISA: antibody captured on anti-IgG Fc plate, biotin human IL4Rα-his detected
[5] = biological target: T2, recombinant human IL4Rα-his protein (in …); assay: SPR (Biacore), antibody captured, IL4Rα-his flowed
[6] = biological target: T4, human IL4Rα expressed on 293F-IL4Rα cells (human, UniProt P24394 26-825); assay: flow cytometry on 293F-IL4Rα cells, blocked ligand biotin human IL4
T4 construct: whole, on cells; also called cell surface human IL4Rα

[7] = biological target: human IL4Rα expressed on HEK293T-IL4Rα-STAT6-STAT6LUC-LB2 cells (human, UniProt P24394 26-825); assay: cell-based or functional assay
[8] = biological target: T4, human IL4Rα expressed on 293F-IL4Rα …; assay: flow cytometry on 293F-IL4Rα cells
[9] = biological target: T2, recombinant human IL4Rα-his protein (in …); assay: competitive ELISA: coated human IL4Rα-his, blocked ligand biotin human IL4
[10] = biological target: T2, recombinant human IL4Rα-his protein (in …); assay: SPR (Biacore), antibody captured, IL4Rα-his flowed; remark: listed apart in the source
[11] = biological target: T2, recombinant human IL4Rα-his protein (in …); assay: competitive ELISA: antibody mixed with biotin human IL4Rα-his, competitor plate-coated Benchmark
[12] = biological target: T1, cynomolgus monkey IL4Rα-his protein; assay: indirect ELISA on coated cynomolgus IL4Rα-his
[13] = biological target: T4, human IL4Rα expressed on 293F-IL4Rα …; assay: flow cytometry on 293F-IL4Rα cells; remark: listed apart in the source
[14] = biological target: T1, cynomolgus monkey IL4Rα-his protein; assay: indirect ELISA on coated cynomolgus IL4Rα-his; remark: listed apart in the source
[15] = biological target: T2, recombinant human IL4Rα-his protein (in …); assay: competitive ELISA: coated human IL4Rα-his, blocked ligand biotin human IL4; remark: listed apart in the source
[16] = biological target: T4, human IL4Rα expressed on 293F-IL4Rα …; assay: flow cytometry on 293F-IL4Rα cells, blocked ligand biotin human IL4; remark: listed apart in the source
[17] = biological target: T3, marmoset monkey IL4Rα-his protein; assay: indirect ELISA on coated cal-IL4Rα-his
[18] = biological target: T2, recombinant human IL4Rα-his protein (in …); assay: capture ELISA: antibody captured on anti-IgG Fc plate, biotin human IL4Rα-his detected; remark: listed apart in the source
[19] = biological target: T2, recombinant human IL4Rα-his protein (in …); assay: SPR (Biacore), antibody captured, IL4Rα-his flowed; remark: listed apart in the source
[20] = biological target: T2, recombinant human IL4Rα-his protein (in …); assay: competitive ELISA: antibody mixed with biotin human IL4Rα-his, competitor plate-coated Benchmark; remark: listed apart in the source

B1: mouse antibody C2C1A1A1 (antibody, V domains shown)
VH: EVQLVESGGGLVQPGGSLKLSCAASGFTFSTYGMSWVRQTPDKRLELVATINSNGGSTSYPDSVKGRFTISRDNAKNTLYLQMSSLKSEDTAMFYCARFFRFRNAMDYWGQGTSVTVSS
VL: DIQMTQSPASLSASVGETVTITCRTSENIYSYLAWYQQKQGKSPQFLVYNAKTLAEGVPSRFSGSGSGTQFSLNINSLQSEDFGSYYCQHYYGPPTWTFGGGTKLEIK
notes: Mouse hybridoma mAb; also called Mouse C2C1A1A1
- EC50 [1]: 330 pM
- IC50 [2]: 1890 pM
- EC50 [3]: 574 pM

B5: chimeric antibody B8G11F2B7G5E8 (antibody, human IgG4 S228P, kappa, V domains shown)
VH: EVQLQQSGADLVRPGASVKLSCTASGFNIKDTYMHWVKQRPEQGLEWVGRIDPTNGYTIYASKFQGKATITADTSSNTAYMQLSSLTSGDTAVYHCVSRRPWFAYWGQGTLVTVSA
VL: DILMTQTPLSLPVSLGAQASISCRSSQSIVHSNGNTYLEWYLQKPGQSPKLLIYKVTNRFSGVPDRFSGSGSGTDFTLKISRVEAEDLGIYYCFQGSHVPYTFGGGTKLEIKR
notes: Mouse variable domains on human IgG4/kappa; also called Chimeric B8G11F2B7G5E8; chB8G11F2B7G5E8
- EC50 [13]: 442 pM
- EC50 [14]: 1060 pM
- IC50 [15]: 1420 pM
- Kd [19]: 3680 pM and 2690 pM
- koff [19]: 0.00112 s⁻¹ and 0.00143 s⁻¹
- kon [19]: 306000 M⁻¹ s⁻¹ and 529000 M⁻¹ s⁻¹
- IC50 [2]: 1820 pM
- Inhibition on IL4 induced STAT6 phosphorylation (IC50, nM) [7]: 0.45 nM
- Inhibition on IL13 induced STAT6 phosphorylation (IC50, nM) [7]: 0.5 nM
- IC50 [20]: 1520 pM
- Kd [10]: 3230 pM
- IC50 [16]: 364 pM
- EC50 [17]: 1010 pM
- EC50 [18]: 319 pM

B6: mouse antibody B1D2F7D3B5 (antibody, V domains shown)
VH: EVKLVESGGGLVKPGGSLKLSCAASGFTFSSYAMSWVRQTPEKRLEWVASISSGDSTYYLDSVKGRFTISRDNAMNILYLQMSSLRSEDTAVYYCERSGGSAPYWGQGTLVSVSA
VL: QIVLTQSPAIMSASPGEMVTISCSASSSVSYMYWYQQKPGSSPKPWIYRTSNLASGVPARFSGSGSGTSYSLTISSMEAEDAATYYCQQYHSFPLTFGAGTKLELK
notes: Mouse hybridoma mAb
- binding result [1]: no binding (tested: 66.7 nM (highest concentration tested))

B7: mouse antibody B9D1D11F8D8 (antibody, V domains shown)
VH: B6 VH with M75R, M82V, V92M, S112T
VL: B6 VL with E17D, S30N
notes: Mouse hybridoma mAb
- binding result [1]: no binding (tested: 66.7 nM (highest concentration tested))

The next lines start with the values.

- EC50 [4]: 54.1 pM
- kon [5]: 329000 M⁻¹ s⁻¹ and 364000 M⁻¹ s⁻¹
- IC50 [2]: 3120 pM
- IC50 [6]: 482 pM
- Inhibition on IL4 induced STAT6 phosphorylation (IC50, nM) [7]: 0.26 nM
- Inhibition on IL13 induced STAT6 phosphorylation (IC50, nM) [7]: 0.39 nM
- EC50 [8]: 326 pM
- IC50 [9]: 2460 pM
- Kd [10]: 388 pM
- EC50 [3]: 623 pM
- IC50 [11]: 172 pM
- EC50 [12]: 603 pM
B2: chimeric antibody C2C1A1A1 (antibody, human IgG4 S228P, kappa, V domains shown)
VH: B1 VH
VL: DIQMTQSPASLSASVGETVTITCRTSENIYSYLAWYQQKQGKSPQFLVYNAKTLAEGVPSRFSGSGSGTQFSLNINSLQSEDFGSYYCQHYYGPPTWTFGGGTKLEIKR
notes: Mouse variable domains on human IgG4/kappa; also called Chimeric C2C1A1A1; chC2C1A1A1

- EC50 [1]: 108000 pM
B3: mouse antibody C2B2F7B7 (antibody, V domains shown)
VH: B1 VH with S59N, F94Y, F102I
VL: B1 VL with T25A, N74K, S80P, P94T
notes: Mouse hybridoma mAb

- EC50 [1]: 290 pM
- EC50 [13]: 325 pM
- EC50 [14]: 500 pM
- IC50 [15]: 1000 pM
- IC50 [2]: 1640 pM
- IC50 [16]: 500 pM
- EC50 [17]: 873 pM
- EC50 [18]: 213 pM
B4: mouse antibody B8G11F2B7G5E8 (antibody, V domains shown)
VH: B5 VH
VL: DILMTQTPLSLPVSLGAQASISCRSSQSIVHSNGNTYLEWYLQKPGQSPKLLIYKVTNRFSGVPDRFSGSGSGTDFTLKISRVEAEDLGIYYCFQGSHVPYTFGGGTKLEIK
notes: Mouse hybridoma mAb; also called Mouse B8G11F2B7G5E8; mAb B8G11F2B7G5E8

From patent publication US20230105029A1 (CHIA TAI TIANQING PHARMACEUTICAL GROUP, published 2023)
